In general, stoichiometry N refers to a count of units in the complex or per binding partner.

For assay [1], the target named is purified mouse NPM1 protein (mouse) (UniProt Q61937). The experiment in a line: native gel or EMSA; in vitro NPM1 oligomerization assay as a5 but without functional LETN (no RNA, scrambled RNA of similar length, or LETN lacking the three NPM1-binding fragments). (In EMSA bound probe runs differently from free probe, usually more slowly.)
Assay [2] deals with purified mouse NPM1 mutant mNPM1-214S/217S (mouse) (UniProt Q61937). The assay can be described thus: native gel or EMSA; in vitro NPM1 oligomerization assay: purified NPM1 sonicated in binding buffer (50 mM Tris pH 7.4, 150 mM NaCl, 0.5% NP-40), incubated at RT with the in vitro transcribed first ~2000 nt of LETN, 10% native PAGE, anti-NPM1 blot.
Assay [3] has as its target mouse NPM1 reintroduced into NPM1-/- HUH7 cells (mouse) (UniProt Q61937). The assay can be described thus: native gel or EMSA; native PAGE of lysates of NPM1-/- HUH7 cells with reintroduced human or mouse NPM1; control and LETN knockdown.

“purified mouse NPM1 protein (from UniProt Q61937 1-292) (natural protein)” displayed a stoichiometry N in assay [1] of 5.

Take “purified mouse NPM1 mutant mNPM1-214S/217S (from UniProt Q61937 1-292) (natural protein)”: the stoichiometry N in assay [2] was determined as 5. On to “mouse NPM1 reintroduced into NPM1-/- HUH7 cells (from UniProt Q61937 1-292) (natural protein)”, for which, in assay [3], the stoichiometry N is 5.

The record behind these values is paper PMC8169757.
